# Test results reported in paper PMC9908077.
# Experiments:
# Assay in all cases: cross-linking; 1 mM BMH (cysteine-specific) added to living transfected HEK293T cells in PBS/5 mM EDTA, 1 hr at room temperature in the dark, stopped with DTT; lysates on 3-8% Tris-Acetate gels, western blot with anti-NC antibody
# [1] = biological target: ccHex2-SP1-NC (HIV-1 NL4-3)
# [2] = biological target: GCN4pAA-SP1-NC (HIV-1 NL4-3)
# [3] = biological target: GCN4pII-SP1-NC (HIV-1 NL4-3)
# [4] = biological target: CANC (N-terminally 3xHA-tagged CANC Gag fragment with the C-terminal SP2-p6 extension, from pCANC) (HIV-1 NL4-3)
substance,measurement,setting,value
ccHex2-SP1-NC,stoichiometry N,[1],< 6
GCN4pAA-SP1-NC,stoichiometry N,[2],< 6
GCN4pII-SP1-NC,stoichiometry N,[3],< 6
"CANC (N-terminally 3xHA-tagged CANC Gag fragment with the C-terminal SP2-p6 extension, from pCANC) (domain or fragment)",stoichiometry N,[4],8 to 10
